The target in test [1] is HLA-DR on Daudi cells (human). Briefly: FACS analysis, PE-labeled L243 on Daudi cells. For orientation: Flow cytometry measures light scatter and fluorescence of single cells or particles in a stream.
The target in test [2] is HLA-DR on M8166 cells (human). Briefly: FACS analysis, PE-labeled L243 on M8166 cells.

L243 mouse monoclonal antibody to HLA-DR α chain, sequence (VH): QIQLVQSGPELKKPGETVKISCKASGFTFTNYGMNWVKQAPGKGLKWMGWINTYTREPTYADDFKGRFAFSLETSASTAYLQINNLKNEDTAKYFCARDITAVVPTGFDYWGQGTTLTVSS
L243 mouse monoclonal antibody to HLA-DR α chain, sequence (VL): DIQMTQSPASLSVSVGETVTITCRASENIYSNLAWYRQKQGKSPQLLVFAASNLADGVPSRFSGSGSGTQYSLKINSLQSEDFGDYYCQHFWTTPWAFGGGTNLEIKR

On to “L243 mouse monoclonal antibody to HLA-DR α chain”, for which the fluorescence as a fraction of that of S1T cells in test [1] stood at 0.1; in test [2] it was 0.01.

(Values after US20110117602A1.)
